Patent US20230322924A1 (Janssen / Centocor, published 2023)

Tests used:
Cyno CD33 ECD-HSA [1] = molecular target: T1, Cyno CD33 ECD-HSA (cynomolgus monkey); test: ProteOn SPR, mAb captured by anti-human Fc, 1:1 Langmuir fit
T1 construct: Cyno CD33 extracellular domain fused to monomeric human serum albumin and a six-histidine tag; also called C33W1
Description: (§1) The panel of mAbs was then further characterized for full affinity analysis as well as epitope binning. The binding of anti-CD33 mAbs to recombinant human CD33 ECD-HSA (C33W2) and cyno CD33 ECD-HSA (C33W1) was measured by ProteOn SPR (Bio-Rad). […] Different mAbs were captured on the anti-human Fc IgG surface at 0.25 or 0.5 μg/ml (160-300 RU) in vertical ligand orientation, with the 6th ligand channel as no ligand surface control. Human and cyno CD33-HSA proteins at 0.3 μM concentration in 3-fold dilution series of 5 concentrations flew in as analyte to bind to captured mAbs in the horizontal orientation. A buffer sample was also injected in the 6th channel to monitor the dissociation of captured mAb and baseline stability. […] The raw biding data were processed by double referencing after subtracting the response data from: 1) the inter-spot to correct for the non-specific interactions between the Ag and the empty chip surface; 2) the buffer channel to correct for baseline drifting due to the dissociation of captured mAb surface over time. The processed data at all antigen concentrations for each mAb were globally fit to a 1:1 simple Langmuir binding model to extract estimates of the kinetic (kₒₙ, koff) and affinity (Kd) constants.

Human CD33 ECD-HSA [2] = molecular target: Human CD33 ECD-HSA (human); test: as above
Chain of Human CD33 ECD-HSA (human) (chain, as listed by the source): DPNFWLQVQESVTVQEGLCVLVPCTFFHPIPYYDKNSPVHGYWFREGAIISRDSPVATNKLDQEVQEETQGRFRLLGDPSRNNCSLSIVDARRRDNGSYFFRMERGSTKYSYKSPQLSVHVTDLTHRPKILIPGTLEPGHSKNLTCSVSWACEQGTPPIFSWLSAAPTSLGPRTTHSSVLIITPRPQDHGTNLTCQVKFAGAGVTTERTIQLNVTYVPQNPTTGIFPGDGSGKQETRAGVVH
Description: as §1

[3] = molecular target: T2, Human CD33 full length, expressed on HEK293F cells (human, UniProt P20138 18-364); test: flow cytometry, HEK293F cells expressing human CD33
T2 construct: HEK293F cells transduced with lentivirus containing full length human CD33; also called huCD33
T2 sequence (P20138 18-364 limits assumed): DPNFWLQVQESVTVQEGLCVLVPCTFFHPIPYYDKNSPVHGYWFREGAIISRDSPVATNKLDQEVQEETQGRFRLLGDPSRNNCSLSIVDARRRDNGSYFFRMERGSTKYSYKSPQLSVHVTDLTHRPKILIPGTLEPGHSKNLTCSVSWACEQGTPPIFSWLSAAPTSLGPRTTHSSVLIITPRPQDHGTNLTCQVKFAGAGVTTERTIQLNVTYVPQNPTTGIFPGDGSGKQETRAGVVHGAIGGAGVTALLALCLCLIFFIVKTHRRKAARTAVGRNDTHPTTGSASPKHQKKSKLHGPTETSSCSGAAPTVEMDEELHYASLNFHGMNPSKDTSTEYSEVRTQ
Description: (§2) OMNIRat antibodies identified via immunization, v-region cloned and subsequently expressed and purified were characterized further for binding to CD33 expressing cells and binding to recombinant antigens. The purified antibodies were assessed for binding to stably transfected HEK293F cells expressing human CD33 or cyno CD33 (generation described above) along with the parental HEK293F as negative control. Cells were harvested from tissue culture flasks using non-enzymatic dissociation buffer (Thermo Scientific). The flasks were rinsed twice with PBS and dissociation buffer was added to the flask, and the flask was incubated for 10 minutes at 37° C. until the cells became non-adherent. The cells were centrifuged at 300 g for 5 minutes and resuspended at 1.0×10⁶ cells/ml in staining buffer (Becton Dickinson; Franklin Lakes, NJ). 50,000 cells/well of each cell type was plated in 50 μl of staining buffer in round bottom plates (Becton Dickinson). […] 100 μl staining buffer was added to all wells of each plate, the plates were spun at 300 g for 5 min, the buffer was removed, 200 μl staining buffer was added to all wells of each plate, the plates were spun at 300 g for 5 min, and the buffer was removed. 50 μl of 2 μg/ml of Goat-anti-human Fc AF647 secondary antibody (Jackson Immunoresearch; West Grove, PA) was added to all wells of the plates, and the plates were incubated for 30 min at 4° C. 100 μl staining buffer was added to all wells of the plates, the plates were spun at 300 g for 5 min, and the buffer was removed. 200 μl running buffer (running buffer is Staining buffer, 1 mM EDTA, 0.1% Pluronic Acid) was added to all wells of the plates, the plates were spun at 300 g for 5 min, and the buffer was removed. 30 μl running buffer containing Sytox Green live/dead dye (ThermoFisher) was added to all wells with cells and the plates were read on an iQue IntelliCyt flow cytometer. Cells were gated on forward vs. side scatter to eliminate debris, then on singlets and then on live cells which excluded the Sytox stain. Antibody binding was assessed by the mean fluorescence intensity in the AF647 channel.

[4] = molecular target: T3, Cyno CD33 full length, expressed on HEK293F cells (cynomolgus monkey); test: flow cytometry, HEK293F cells expressing cyno CD33
T3 construct: HEK293F cells transduced with lentivirus containing full length cyno CD33 (Genbank XP_005590138.1); also called cyCD33
Description: as §2

Human CD33 ECD-HSA [5] = molecular target: Human CD33 ECD-HSA (human); test: SPRi off-rate screen (IBIS MX96), mAb captured by anti-human Fc; column head prints KD
Description: (§3) To begin assessing the biophysical binding properties of the purified mAbs an off-rate screen was performed. 76 OMNIRat anti-CD33 mAbs were tested for binding to recombinant human CD33 ECD-HSA (C33W2) and cyno CD33 ECD-HSA (C33W1) proteins (Janssen production) and the off-rate was measured by IBIS MX96 SPRi array platform (Carterra; Newton, PA). […] The sensor chip was transferred to the Continuous Flow Microspotter (CFM) unit to capture each anti-CD33 mAb at 10 μg/ml for 10 minutes. Binding was measured on IBIS SPRi by single cycle kinetics without regeneration. […] The raw binding data (.trix file format) were referenced and aligned using SprintX software (Wasatch, Ver 1.9.3.2), then exported (.ibmx file format) to Scrubber software (Ver. 2.0) for 1:1 binding kinetic analyses (Wasatch, version 2.0.0.33) to extract the koff results.

Cyno CD33 ECD-HSA [6] = molecular target: T1, Cyno CD33 ECD-HSA; test: SPRi off-rate screen (IBIS MX96), mAb captured by anti-human Fc; column head prints Cyno CD33 binding KD
Description: as §3

Row | Binder | Kd (Cyno CD33 ECD-HSA [1]) | koff (Cyno CD33 ECD-HSA [1]) | kon (Cyno CD33 ECD-HSA [1]) | Kd (Human CD33 ECD-HSA [2]) | koff (Human CD33 ECD-HSA [2]) | kon (Human CD33 ECD-HSA [2]) | MFI at 0 nM mAb (background) [3] | MFI at 0.6 nM mAb [3] | MFI at 6 nM mAb [3] | MFI at 60 nM mAb [3] | MFI at 0 nM mAb (background) [4] | MFI at 0.6 nM mAb [4] | MFI at 6 nM mAb [4] | MFI at 60 nM mAb [4] | koff (Human CD33 ECD-HSA [5]) | koff (Cyno CD33 ECD-HSA [6])
1 | C33B48 (antibody, IgG1, V domains shown, huIgG1 F405L; also called C33F53; C33H80/C33L73) VH: QVQLVQSGSELRKPGASVKVSCKASGYTFTNYAMNWVRQAPGQGLEWMGWINTNTGNPTYAQGFTGRFVFSLDTSVSSAYLQISSLKAEDTAMYYCATDRDRGTDYWGQGTLVTVSS VL: QSALTQPASVSGSPGQSITISCTGTSSDVGDYNYVSWYQQHPGKVPKLMIYDVSNRPSGVSNRFSGSMSGNTASLTISGLQAEDEADYYCSSYSSSSALEVFGGGTKLTVL | 0.0366 nM | 0.000158 s⁻¹ | 4.31e+06 M⁻¹ s⁻¹ | 0.0112 nM | 1.82e-05 s⁻¹ | 1.62e+06 M⁻¹ s⁻¹ | 91.1 MFI | 391000 MFI | 429000 MFI | 401000 MFI | 94 MFI | 43400 MFI | 47300 MFI | 56500 MFI | 5.47e-05 s⁻¹ | 0.00012 s⁻¹
2 | C33B46 (antibody, IgG1, V domains shown, huIgG1 F405L; also called C33F51; C33H108/C33L74) VH: QVQLVQSGSELKKPGASVKVSCKASGYTFSTYAMNWVRQAPGQGLEWMGWINTNTGNPTYAQGFTGRFVFSLDTSVSTAYLQISSLKAEDTAVYYCARDRDRGTDYWGQGTLVTVSS VL: QSALTQPASVSGSPGQSITISCTGTSSDVGDDNYVSWYQQHPGKAPKLMIYDVSNRPSGVSNRFSGSKSGNTASLTISGLQSEDEADYYCSSYSSSTTLEVFGGGTKLTVL | 0.126 nM | 0.000375 s⁻¹ | 2.97e+06 M⁻¹ s⁻¹ | 1.38 nM | 0.00199 s⁻¹ | 1.45e+06 M⁻¹ s⁻¹ | 135 MFI | 418000 MFI | 448000 MFI | 510000 MFI | 92 MFI | 49700 MFI | 49800 MFI | 49800 MFI | 0.000467 s⁻¹ | 0.000148 s⁻¹
3 | C33B61 (antibody, V domains shown, huIgG1 F405L; also called C33F66; C33H48/C33L58) VH: QLQLQESGPGLVKPSETLSLTCTVSGGSIRSTNYYWGWIRQPPGKGLEWIGTIYYSGNTYYNPSLKSRVTISVDTSKNQFSLKLSSVTAADTAVYYCARLADVVVVPAARYFDYWGQGILVTVSS VL: not shown | 2.21 nM | 0.00162 s⁻¹ | 734000 M⁻¹ s⁻¹ | 21.4 nM | 0.0105 s⁻¹ | 489000 M⁻¹ s⁻¹ | 79.8 MFI | 5310 MFI | 38700 MFI | 199000 MFI | 107 MFI | 1600 MFI | 8210 MFI | 13600 MFI | 0.00671 s⁻¹ | 0.00183 s⁻¹
4 | C33B62 (antibody, IgG1, V domains shown, huIgG1 F405L; also called C33F67; C33H49/C33L59) VH: QLQLQESGPGLVKPSETLSLTCTVSGGSIRSSGFYWGWIRQPPRKGLEWIGTIYYSGNTYYNPSLKSRVTISVDTSKNQFSLKLSSVTAADTAVYFCARLADVVVVPAARYFDNWGQGTLVTVSS VL: not shown | 1.85 nM | 0.00149 s⁻¹ | 805000 M⁻¹ s⁻¹ | 24.9 nM | 0.0126 s⁻¹ | 507000 M⁻¹ s⁻¹ | 75 MFI | 6090 MFI | 37400 MFI | 158000 MFI | 934 MFI | 1920 MFI | 5620 MFI | 12700 MFI | 0.01 s⁻¹ | 0.00132 s⁻¹

Further binders by falling Kd (Human CD33 ECD-HSA [2]), results first:

Row | Kd (Cyno CD33 ECD-HSA [1]) | koff (Cyno CD33 ECD-HSA [1]) | kon (Cyno CD33 ECD-HSA [1]) | Kd (Human CD33 ECD-HSA [2]) | koff (Human CD33 ECD-HSA [2]) | kon (Human CD33 ECD-HSA [2]) | MFI at 0 nM mAb (background) [3] | MFI at 0.6 nM mAb [3] | MFI at 6 nM mAb [3] | MFI at 60 nM mAb [3] | MFI at 0 nM mAb (background) [4] | MFI at 0.6 nM mAb [4] | MFI at 6 nM mAb [4] | MFI at 60 nM mAb [4] | koff (Human CD33 ECD-HSA [5]) | koff (Cyno CD33 ECD-HSA [6]) | Binder
5 | 0.217 nM | 0.000266 s⁻¹ | 1.22e+06 M⁻¹ s⁻¹ | 52.9 nM | 0.00203 s⁻¹ | 38500 M⁻¹ s⁻¹ | 130 MFI | 56600 MFI | 313000 MFI | 445000 MFI | 78 MFI | 42200 MFI | 49100 MFI | 48900 MFI | 0.000859 s⁻¹ | 9.33e-05 s⁻¹ | C33B66 (antibody, IgG1, V domains shown, huIgG1 F405L; also called C33F71; C33H55/C33L42) VH: QVQLQESGPGLVKPSGTLSLTCAVSGGSISSSNWWSWVRQPPGRGLEWIGEIYHSGNTNNSPSLKSRVTISADKSKNQFSLKLSSVTAADTAVYFCARIIAVARYFDSWGQGTLVTVSS VL: SYVLTQPPSVSVAPGQTARITCGGNNIGIKSVHWYQQKPGQAPVLVVYDDSDRPPGIPERFSGSNSGNTATLTITRVEAGDEADYYCQVWDSSSDHVVFGGGTKLTVL
6 | 2.69 nM | 0.00339 s⁻¹ | 1.26e+06 M⁻¹ s⁻¹ | 14.8 nM | 0.0152 s⁻¹ | 1.02e+06 M⁻¹ s⁻¹ | 71 MFI | 8860 MFI | 88200 MFI | 224000 MFI | 61.1 MFI | 3230 MFI | 10400 MFI | 10700 MFI | 0.0103 s⁻¹ | 0.00274 s⁻¹ | C33B123 (antibody, IgG1, V domains shown, huIgG1 F405L; also called C33F128; C33H91/C33L44) VH: QLQLQESGPGLVKPSETLSLTCTVSGGSISSRSHYWGWIRQPPGVGLEWIGSIYYTGSTYYNPSLKSRVTISVDTSKNQFSLKLSSVTAADTAVYYCARLADIVVVPAARYFDYWGQGTLVTVSS VL: not shown
7 |  |  |  | 9.53 nM | 0.00712 s⁻¹ | 747000 M⁻¹ s⁻¹ | 65 MFI | 14300 MFI | 84300 MFI | 259000 MFI | 82.5 MFI | 5840 MFI | 13900 MFI | 19700 MFI | 0.00874 s⁻¹ | 0.00145 s⁻¹ | C33B122 (antibody, IgG1, V domains shown, huIgG1 F405L; also called C33F127; C33H92/C33L30) VH: QLQLQESGPGLVKPSETLSLTCTVSGGSIRSSSYYWGWIRQPPGKGPEWIGSIYSSGNTYYNPSLKSRVTISVDTSKNQFSLKLISMTAADTAVFYCARLAATIVVPAARYFDCWGQGTLVTVSS VL: SYELTQPPSVSVSPGQTVSISCSGDRLGDKYACWYQQKPGQSPVLVIYQDSKRPSGIPERFSGSNSGNTATLTISGTQAMDEADYYCQAWDSSSYVFGTGTKVTVL
8 | 1.2 nM | 0.000269 s⁻¹ | 225000 M⁻¹ s⁻¹ | 6.64 nM | 0.00108 s⁻¹ | 162000 M⁻¹ s⁻¹ | 70.1 MFI | 35500 MFI | 205000 MFI | 269000 MFI | 79.7 MFI | 18000 MFI | 46100 MFI | 48000 MFI | 0.000398 s⁻¹ | 0.000106 s⁻¹ | C33B101 (antibody, V domains shown, huIgG1 F405L; 260 is used; also called C33F106; C33H69/C4LL152) VH: QLQLQESGPGLVKPSETLSLTCTVSGGSISSSSYYWGWIRQPPGKGLDWIGSINYSGSTYYNPSLKSRVTISVDTSKIQFSLKLRSVTAADTAVYYCARLDGYESPFDYWGQGTLVTVSS VL: DIQMTQSPSSVSASVGDRVTITCRASQGISSWLAWYQQKPGKAPKLLIYAASSLQSGVPSRFSGSGSGTDFTLTISSLQPEDFATYYCQQANSFPFTFGPGTKVDIK
